According to patent US20220054583A1 (ANBITION S R L, published 2022):

Key:
[1] = target: human recombinant receptor VEGFR-1, seven extracellular domains fused to the Fc domain of human IgG (R&D Systems, cat No 321-FL) (human) (UniProt P17948); experiment: competition ELISA, residual binding of PlGF (5 ng/ml) to coated VEGFR-1-Fc, peptide 780 nM
[2] = target: human recombinant receptor VEGFR-1, seven extracellular domains fused to the Fc domain of human IgG (R&D Systems, cat No 321-FL) (human) (UniProt P17948); experiment: competition ELISA, residual binding of PlGF (5 ng/ml) to coated VEGFR-1-Fc, peptide 1560 nM
[3] = target: human recombinant receptor VEGFR-1, seven extracellular domains fused to the Fc domain of human IgG (R&D Systems, cat No 321-FL) (human) (UniProt P17948); experiment: competition ELISA, residual binding of PlGF (5 ng/ml) to coated VEGFR-1-Fc, peptide 3125 nM
[4] = target: human recombinant receptor VEGFR-1, seven extracellular domains fused to the Fc domain of human IgG (R&D Systems, cat No 321-FL) (human) (UniProt P17948); experiment: competition ELISA, residual binding of PlGF (5 ng/ml) to coated VEGFR-1-Fc, peptide 6250 nM
[5] = target: human recombinant receptor VEGFR-1, seven extracellular domains fused to the Fc domain of human IgG (R&D Systems, cat No 321-FL) (human) (UniProt P17948); experiment: competition ELISA, residual binding of PlGF (5 ng/ml) to coated VEGFR-1-Fc, peptide 12500 nM
[6] = target: human recombinant receptor VEGFR-1, seven extracellular domains fused to the Fc domain of human IgG (R&D Systems, cat No 321-FL) (human) (UniProt P17948); experiment: competition ELISA, residual binding of PlGF (5 ng/ml) to coated VEGFR-1-Fc, peptide 25000 nM
[7] = target: human recombinant receptor VEGFR-1, seven extracellular domains fused to the Fc domain of human IgG (R&D Systems, cat No 321-FL) (human) (UniProt P17948); experiment: competition ELISA, residual binding of PlGF (5 ng/ml) to coated VEGFR-1-Fc, peptide 50000 nM
[8] = target: human recombinant receptor VEGFR-1, seven extracellular domains fused to the Fc domain of human IgG (R&D Systems, cat No 321-FL) (human) (UniProt P17948); experiment: competition ELISA, residual binding of VEGF-A (5 ng/ml) to coated VEGFR-1-Fc, peptide 780 nM
[9] = target: human recombinant receptor VEGFR-1, seven extracellular domains fused to the Fc domain of human IgG (R&D Systems, cat No 321-FL) (human) (UniProt P17948); experiment: competition ELISA, residual binding of VEGF-A (5 ng/ml) to coated VEGFR-1-Fc, peptide 1560 nM
[10] = target: human recombinant receptor VEGFR-1, seven extracellular domains fused to the Fc domain of human IgG (R&D Systems, cat No 321-FL) (human) (UniProt P17948); experiment: competition ELISA, residual binding of VEGF-A (5 ng/ml) to coated VEGFR-1-Fc, peptide 3125 nM
[11] = target: human recombinant receptor VEGFR-1, seven extracellular domains fused to the Fc domain of human IgG (R&D Systems, cat No 321-FL) (human) (UniProt P17948); experiment: competition ELISA, residual binding of VEGF-A (5 ng/ml) to coated VEGFR-1-Fc, peptide 6250 nM
[12] = target: human recombinant receptor VEGFR-1, seven extracellular domains fused to the Fc domain of human IgG (R&D Systems, cat No 321-FL) (human) (UniProt P17948); experiment: competition ELISA, residual binding of VEGF-A (5 ng/ml) to coated VEGFR-1-Fc, peptide 12500 nM
[13] = target: human recombinant receptor VEGFR-1, seven extracellular domains fused to the Fc domain of human IgG (R&D Systems, cat No 321-FL) (human) (UniProt P17948); experiment: competition ELISA, residual binding of VEGF-A (5 ng/ml) to coated VEGFR-1-Fc, peptide 25000 nM
[14] = target: human recombinant receptor VEGFR-1, seven extracellular domains fused to the Fc domain of human IgG (R&D Systems, cat No 321-FL) (human) (UniProt P17948); experiment: competition ELISA, residual binding of VEGF-A (5 ng/ml) to coated VEGFR-1-Fc, peptide 50000 nM

human recombinant receptor VEGFR-1, seven extracellular domains fused to the Fc domain of human IgG (R&D Systems, cat No 321-FL) (human), sequence (P17948 27-758): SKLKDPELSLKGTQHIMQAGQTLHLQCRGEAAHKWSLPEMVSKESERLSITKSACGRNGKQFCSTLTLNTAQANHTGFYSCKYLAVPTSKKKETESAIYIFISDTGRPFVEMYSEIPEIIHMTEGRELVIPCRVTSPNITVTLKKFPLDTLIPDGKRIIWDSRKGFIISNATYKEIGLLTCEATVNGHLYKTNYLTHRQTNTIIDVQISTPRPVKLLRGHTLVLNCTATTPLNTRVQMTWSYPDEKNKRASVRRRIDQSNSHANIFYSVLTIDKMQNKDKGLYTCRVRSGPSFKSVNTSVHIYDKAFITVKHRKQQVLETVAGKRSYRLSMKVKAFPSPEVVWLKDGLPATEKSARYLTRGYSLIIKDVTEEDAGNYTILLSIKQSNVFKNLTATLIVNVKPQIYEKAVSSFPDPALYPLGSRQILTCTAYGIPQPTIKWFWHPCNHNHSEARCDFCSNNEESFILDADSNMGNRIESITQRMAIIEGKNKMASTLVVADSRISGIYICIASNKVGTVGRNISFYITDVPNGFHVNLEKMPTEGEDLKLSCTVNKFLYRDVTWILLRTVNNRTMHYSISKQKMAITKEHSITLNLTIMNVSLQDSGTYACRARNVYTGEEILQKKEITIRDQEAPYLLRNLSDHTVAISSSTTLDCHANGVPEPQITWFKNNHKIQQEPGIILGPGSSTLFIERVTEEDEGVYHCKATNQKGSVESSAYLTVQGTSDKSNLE

control peptide (PC), (S-Ser)-(S-Ala)-(S-Cha) tripeptide with a tetrameric structure identical to the structure of the iVR1 peptides
binding % [1]: 98.9%
binding % [2]: 102%
binding % [3]: 99.5%
binding % [4]: 93.8%
binding % [5]: 87.2%
binding % [6]: 88.5%
binding % [7]: 90.2%
binding % [8]: 100%
binding % [9]: 103%
binding % [10]: 95.2%
binding % [11]: 91.4%
binding % [12]: 100%
binding % [13]: 93.4%
binding % [14]: 87.9%
